Tested on: pentasaccharide bound plasma antithrombin (plasma anti-factor Xa activity), HUVEC surface
Test: Rotachrom heparin anti factor Xa assay after pre-incubation of pentasaccharide containing plasma-mutated antithrombin mixture on HUVEC surface
Assay type: cell-based, human
Settings: for virtual pentasaccharide concentration (residual anti-factor Xa activity): 3 μg/mL pentasaccharide
Protocol: Finally to evaluate effect of mutated antithrombin on anti-factor Xa activity in conditions as close as possible to in vivo conditions, Rotachrom® heparin method is used to test anti-factor Xa activity in plasma pre-incubated with mutated antithrombin (0-0.6 g/L, preferably 0.15-0.6 g/L in kinetic buffer), during 30 min at 37° C. on human umbilical vein endothelial cells (HUVEC) in culture. Cells are inoculated at 20 000 cells/cm^2 in 96 well plate and grown to confluence for 24 hours in EGM-2 media (Clonetics, Cambrex). After two wash with phosphate buffer saline (Gibco, Invitrogen) cells are starved for 4 hours in EBM-2 media (Clonetics, Cambrex) and then washed again twice in phosphate buffer saline to prevent excess contamination with heparin present in the culture medium. HUVEC coated wells are then used for 30 min incubation of pentasaccharide containing plasma-mutated antithrombin mixture (125 μl/cm^2) before Rotachrom® heparin assay
To evaluate the role of blood-vessel endothelium, or more precisely, the role of glycosamino-glycans exposed on endothelial cell surface, on competition between natural antithrombin and mutated antithrombin for pentasaccharide binding, the same experiment as described above is done but with pre-incubation of pentasaccharide containing plasma-mutated antithrombin mixture on HUVEC surface (FIG. 8).

Molecule	virtual pentasaccharide concentration (residual anti-factor Xa activity) (ratio 1/1)	virtual pentasaccharide concentration (residual anti-factor Xa activity) (ratio 2/1)	virtual pentasaccharide concentration (residual anti-factor Xa activity) (ratio 4/1)	effect on anti-factor Xa activity of pentasaccharide (over-dosing conditions)
AT-N135Q-R393H: human antithrombin with substitution at 393 by Histidine and at 135 by Glutamine	1.66 µg/mL	0.91 µg/mL	0.26 µg/mL	
AT-N135Q-Pro394: human antithrombin with Proline inserted between 393 and 394 and substitution at 135 by Glutamine (protein, listed as Homo sapiens) HGSPVDICTAKPRDIPMNPMCIYRSPEKKATEDEGSEQKIPEATNRRVWELSKANSRFATTFYQHLADSKNDNDNIFLSPLSISTAFAMTKLGACNDTLQQLMEVFKFDTISEKTSDQIHFFFAKLNCRLYRKAQKSSKLVSANRLFGDKSLTFNETYQDISELVYGAKLQPLDFKENAEQSRAAINKWVSNKTEGRITDVIPSEAINELTVLVLVNTIYFKGLWKSKFSPENTRKELFYKADGESCSASMMYQEGKFRYRRVAEGTQVLELPFKGDDITMVLILPKPEKSLAKVEKELTPEVLQEWLDELEEMMLVVHMPRFRIEDGFSLKEQLQDMGLVDLFSPEKSKLPGIVAEGRDDLYVSDAFHKAFLEVNEEGSEAAASTAVVIAGRPSLNPNRVTFKANRPFLVFIREVPLNTIIFMGRVANPCVK	1.69 µg/mL	0.94 µg/mL	0.27 µg/mL	
AT-Pro394: human antithrombin with insertion of a Proline between positions 393 and 394 (protein, listed as Homo sapiens) HGSPVDICTAKPRDIPMNPMCIYRSPEKKATEDEGSEQKIPEATNRRVWELSKANSRFATTFYQHLADSKNDNDNIFLSPLSISTAFAMTKLGACNDTLQQLMEVFKFDTISEKTSDQIHFFFAKLNCRLYRKANKSSKLVSANRLFGDKSLTFNETYQDISELVYGAKLQPLDFKENAEQSRAAINKWVSNKTEGRITDVIPSEAINELTVLVLVNTIYFKGLWKSKFSPENTRKELFYKADGESCSASMMYQEGKFRYRRVAEGTQVLELPFKGDDITMVLILPKPEKSLAKVEKELTPEVLQEWLDELEEMMLVVHMPRFRIEDGFSLKEQLQDMGLVDLFSPEKSKLPGIVAEGRDDLYVSDAFHKAFLEVNEEGSEAAASTAVVIAGRPSLNPNRVTFKANRPFLVFIREVPLNTIIFMGRVANPCVK				decreases anti-factor Xa activity
